From PMC2791020 come the findings set out here.

The Kd is a measure of binding affinity in units of concentration. A higher Kd goes with weaker binding. What is called koff is a measure of how fast the partners let go of each other. Usually kon stands for a measure of how fast the partners come together. A lower kon goes with slow association.

Assay [1] has as its target protein kinase A catalytic (C) subunit mutant K285P. Description: SPR. On the technique in general: In SPR one partner is held on a chip, and binding of the other changes the refractive index at the surface.
The target of assay [2] is protein kinase A catalytic (C) subunit, wild type (UniProt P05132). Description: SPR.

For “RIIβAB, truncated PKA regulatory subunit RIIβ (from UniProt P12369 108-402) (domain or fragment)”, in assay [1], the Kd was 111 nM and the koff amounted to 0.0123 s⁻¹.

In assay [2], “RIαAB, truncated RIα(91–379) containing both cAMP-binding domains (domain or fragment)” yielded a Kd of 0.9 nM, a koff of 0.000844 s⁻¹ and a kon of 919000 M⁻¹ s⁻¹. Moreover, in assay [1], the Kd amounted to 4.9 nM, the koff stood at 0.00443 s⁻¹ and the kon was 906000 M⁻¹ s⁻¹.
